Experiment: yeast display, Sf9 membrane polyspecificity reagent, FACS + sequencing; frameworks hold sequencing errors
Summary of the method: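 Nanobodies came from a synthetic yeast display library in Saccharomyces cerevisiae BJ5465, induced with galactose for 36–48 hours and stained for 1 hour at 4 °C with 10% biotinylated, detergent-solubilized Sf9 membrane reagent. Cells were enriched on streptavidin microbeads and then FACS-sorted, with low and high (top ~1%) gates set on anti-HA fluorescence for expression and streptavidin fluorescence for reagent binding. Each polyreactivity label reflects the gate a clone came from. Genes were amplified by colony PCR, sequenced by MiSeq 2 × 250 and filtered by CDR length.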

Row | Sequence | polyreactivity (PSR sort gate)
1 | QVQLGESGGGLVQAGGSLRLSCAASGGTFSQYAMGWYRHAPGKERELVARISRRGGSTSYADSVKGRFTISRDNAKNTVYLQMNSLKPEDTAVYYCAKDAPSVYPGRFGNTGGYAYDYWGQGTQVTVSS | high polyreactivity
2 | QVQLVESGGGLVQAGGSLRLSCAASGIIFYGYAMGWYRQAPGKERELVAAISRSGGSTYYADSVKGRFTISRDNAKNTVYLQMNSLKPEDTAVYYCAAVRIRPLRYYYWGQGTQVTVSS | high polyreactivity
3 | QDQLVESGGGLVQAGVSLRLSCAASGRTIRHNPMGWYIQAPGKERELVATINRGGNTYYADSVKGRFTISRDNAKNTVYLQMISLKPEDTAVYYCAARRSFLFDDGNYWGQVTQVTVSS | low polyreactivity
4 | QVQLVESGGGLVQAGGSLRLSCAASGSILNNYAMGWYRQAPGKERELVAAISSSGGTNYADSVKGRFTISRDNAKYTVYLQMNSLKPEDTAVYYCNADVLDGGYDYWGQGTQVTVSS | low polyreactivity
5 | QVQLVESGGGLLQAGGSLRLSSAASGRTFSTNAMGWYRQAPGKERELVAAITSRGGSTYYADSVKGRFTISRDNAKNTVYLQMNSLKPEDTAVYYCAAGWLPKYGYWGQGTQVTVSS | low polyreactivity
6 | QVQLVESGGGLVQAGGSLRLSCAASGRIFVAYTMGWYRQAPGKERELVAAISTNGGRTYYADSVKGRFTISRDNAKNTVYLQMNSLKPEDTAVYYCAAYRGPRADYYWGQGTQVTVSS | high polyreactivity
7 | QVQLVESGGGLVQAGGSLRLSCAASGRIFTSNTMGWYRQAPGKERELVAAITWRVGSTYYADSVKGRFTISRDNAKNTVYLQMNSLKPEDTAVYYCNAVVLHVTTDNSTFTTDDYWGQGTQVTVSS | low polyreactivity
8 | QVQLVESGVGIVQAGGSLRLSSAPSGRTFTWYAMGRTRQAPGKERELVAAITNGGRTYADSVKGRFTISRDNAKNTVYLQMNSLKPEDTAVYYCAKVQYRGYLPHQRGRERDYDYWGQGTQVTVSS | low polyreactivity
9 | QVQLEESGGGLVQAGGSLRLSCAASGSIFYSNAMGWYRQAPGKERELVAAISVSGVSTYYADSVKGRFTISRDNAKNTVYLQMNSLKPEDTAVYYCAAQYVTRGLYLVAFFSYDYWGQGTQVTVSS | low polyreactivity
10 | QVQLVESGGGLVQAGGSLRLSCAASGFTFQYYAMGWYRQAPGKERELVAAISGTSGSTRYADSVKGRFTISRDNSKNTVYLQMNSLKPEDSAVYYCAAGSRGKVPVGLRYGYYYWGQGTQVTVSS | high polyreactivity
11 | QVQLVESGGGLVQAGGSLRLSCAASGSILSTNDMGWYRQAPGKERELVAGISSGGSTNYADSVKGRFTISRDNAKNTVYLQMNSQKPEDTAVYYCATDVDKDPAEMDYWGQGTQVTVSS | low polyreactivity
12 | QVQLVESGGGLVQAGGSLPLSCAASGSTFLQYAMGWYRQAPGKERELVAAIRGRGDSTYYADSVNGRFTISRDNEMNTVYLQMNSLKPVDSAVYSCAARGQGSRGMYYWGQGTKVTVSS | low polyreactivity
13 | QVQLVESGGGLVQAGVSLRLSCAAYGRIFGPYAMGWYRQAPGKERELVATITWRTGSTYYADSVKGRFTISRDNAKNTVYLQMNSLKPEDTAVYYCAARYGRYSKAGDYWGLGTQVTVSS | high polyreactivity
14 | QVQLVESGGGLVQAGGSLRLSCAASGSTFQYYAMGWYRQAPGKEGELVATINSGGSTNYADSVKGRFTISRDNAKNTVYLQMNSLKPEDTAVYYCARRVRYKHYDYWGQGTQVTVSS | high polyreactivity
15 | QVQLVESGGGLVQAGGSLRLSCAASGLIFSSNVMGWYRQAPGKERQLVAAIRQRGGSTRYADSVKGRFTISRDNAKNTVYLQMNSLKPEDTEVYYCAADTYYSHSWDSYDYWGQGTQVTVSS | low polyreactivity
16 | QVQLVESGGVLVQAGGSLRLSCAASGSTFYGYAMGWYRQAPGKERELVAAITRSGGSTYYADSVKGRFTISRDNAKNTVYLQMNSLKPEDTAVYYCARQDRDTYYHRYYYWGQGTQVTVSS | high polyreactivity
17 | QVQLVESGGGLVQAGGSLRLSCAASGSIFGSYAMGWYRQGAGKERELVAGITYDGGSTYYADSVKGRFTISRDNAKNTVYLQMNSLKPEDTAVYYCAAVDIRLEWDFWFQPTYEYWGQGTQVTVSS | low polyreactivity
